Holding throughout (details): both partners purified
In test [1] the target is T1, BRR2 helicase region (BRR2^HR, residues 395-2129) (human, UniProt O75643 395-2129).
T1 construct: For the cryoEM complex with C9ORF78 the co-purified proteins were treated with TEV protease and recycled on Ni-NTA; also called His10-BRR2^HR; source: insect cells
The test can be described thus: SEC; analytical SEC, Superdex 200 increase 3.2/300, 20 mM Tris-HCl pH 8.0, 200 mM NaCl, 1 mM DTT; 75 ug BRR2 construct or PRPF8^Jab1 with 1.5-fold molar excess of partner, pre-incubated 10 min on ice; fractions by SDS-PAGE. (Size exclusion chromatography separates by hydrodynamic size, large species first.)

Test [2] concerns the target T2, full-length BRR2 (BRR2^FL) (human, UniProt O75643 1-2136).
T2 construct: BRR2 (SNRNP200), human, full length; The His10 tag is named only for the peptide SPOT array; also called His10-BRR2^FL; SNRNP200
Described as above.

The target of test [3] is T3, BRR2 C-terminal cassette (BRR2^CC, residues 1282-2136) (human, UniProt O75643 1282-2136).
T3 construct: BRR2 (SNRNP200), human, C-terminal helicase cassette, residues 1282-2136; The His10 tag is named only for the peptide SPOT array; also called His10-BRR2^CC
T3 sequence (looked up): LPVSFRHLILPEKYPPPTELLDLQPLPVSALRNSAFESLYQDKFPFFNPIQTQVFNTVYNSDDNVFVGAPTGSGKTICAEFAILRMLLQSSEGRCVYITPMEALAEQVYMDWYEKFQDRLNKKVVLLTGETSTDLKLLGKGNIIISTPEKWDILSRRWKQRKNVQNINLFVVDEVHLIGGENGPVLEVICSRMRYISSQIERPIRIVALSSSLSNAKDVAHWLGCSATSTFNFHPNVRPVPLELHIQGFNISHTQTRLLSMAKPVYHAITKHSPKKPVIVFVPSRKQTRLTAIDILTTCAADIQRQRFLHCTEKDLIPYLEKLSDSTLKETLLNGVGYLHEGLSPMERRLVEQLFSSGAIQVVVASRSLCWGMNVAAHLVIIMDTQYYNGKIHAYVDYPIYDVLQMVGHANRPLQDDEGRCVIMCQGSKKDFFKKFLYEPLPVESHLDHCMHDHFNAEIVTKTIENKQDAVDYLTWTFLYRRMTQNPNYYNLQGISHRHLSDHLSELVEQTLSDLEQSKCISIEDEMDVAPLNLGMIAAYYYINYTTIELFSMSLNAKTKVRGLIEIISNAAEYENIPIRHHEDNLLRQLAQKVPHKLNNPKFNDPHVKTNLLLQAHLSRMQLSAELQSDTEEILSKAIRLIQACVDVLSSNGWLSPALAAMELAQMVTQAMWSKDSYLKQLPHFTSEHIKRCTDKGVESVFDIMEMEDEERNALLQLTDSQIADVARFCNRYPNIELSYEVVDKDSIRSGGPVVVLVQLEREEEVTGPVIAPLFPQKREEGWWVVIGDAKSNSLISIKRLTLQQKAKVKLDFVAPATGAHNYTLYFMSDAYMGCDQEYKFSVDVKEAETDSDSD
The description is as above.

Test [4] addresses T4, BRR2^HR-PRPF8^Jab1 complex (human, UniProt O75643 395-2129; Q6P2Q9 2064-2335).
T4 construct: PRPF8, human, Jab1/MPN-like domain, residues 2064-2335; source: purified BRR2^HR and PRPF8^Jab1 mixed in equimolar amounts
Nature of the test: SEC; competition: BRR2^HR with equimolar PRPF8^Jab1 and FBP21^116-376 10 min on ice, then with or without equimolar GST-C9ORF78 for 10 min; analytical SEC as above.

The target in test [5] is T1, BRR2 helicase region (BRR2^HR, residues …). Nature of the test: cryo-EM structure; complexes purified by SEC, 20 mM Tris-HCl pH 8.0, 150 mM NaCl, 1 mM DTT, 5 mg/ml, 0.15% n-octylglucoside; Titan Krios 300 kV.

T1 sequence (O75643 395-2129): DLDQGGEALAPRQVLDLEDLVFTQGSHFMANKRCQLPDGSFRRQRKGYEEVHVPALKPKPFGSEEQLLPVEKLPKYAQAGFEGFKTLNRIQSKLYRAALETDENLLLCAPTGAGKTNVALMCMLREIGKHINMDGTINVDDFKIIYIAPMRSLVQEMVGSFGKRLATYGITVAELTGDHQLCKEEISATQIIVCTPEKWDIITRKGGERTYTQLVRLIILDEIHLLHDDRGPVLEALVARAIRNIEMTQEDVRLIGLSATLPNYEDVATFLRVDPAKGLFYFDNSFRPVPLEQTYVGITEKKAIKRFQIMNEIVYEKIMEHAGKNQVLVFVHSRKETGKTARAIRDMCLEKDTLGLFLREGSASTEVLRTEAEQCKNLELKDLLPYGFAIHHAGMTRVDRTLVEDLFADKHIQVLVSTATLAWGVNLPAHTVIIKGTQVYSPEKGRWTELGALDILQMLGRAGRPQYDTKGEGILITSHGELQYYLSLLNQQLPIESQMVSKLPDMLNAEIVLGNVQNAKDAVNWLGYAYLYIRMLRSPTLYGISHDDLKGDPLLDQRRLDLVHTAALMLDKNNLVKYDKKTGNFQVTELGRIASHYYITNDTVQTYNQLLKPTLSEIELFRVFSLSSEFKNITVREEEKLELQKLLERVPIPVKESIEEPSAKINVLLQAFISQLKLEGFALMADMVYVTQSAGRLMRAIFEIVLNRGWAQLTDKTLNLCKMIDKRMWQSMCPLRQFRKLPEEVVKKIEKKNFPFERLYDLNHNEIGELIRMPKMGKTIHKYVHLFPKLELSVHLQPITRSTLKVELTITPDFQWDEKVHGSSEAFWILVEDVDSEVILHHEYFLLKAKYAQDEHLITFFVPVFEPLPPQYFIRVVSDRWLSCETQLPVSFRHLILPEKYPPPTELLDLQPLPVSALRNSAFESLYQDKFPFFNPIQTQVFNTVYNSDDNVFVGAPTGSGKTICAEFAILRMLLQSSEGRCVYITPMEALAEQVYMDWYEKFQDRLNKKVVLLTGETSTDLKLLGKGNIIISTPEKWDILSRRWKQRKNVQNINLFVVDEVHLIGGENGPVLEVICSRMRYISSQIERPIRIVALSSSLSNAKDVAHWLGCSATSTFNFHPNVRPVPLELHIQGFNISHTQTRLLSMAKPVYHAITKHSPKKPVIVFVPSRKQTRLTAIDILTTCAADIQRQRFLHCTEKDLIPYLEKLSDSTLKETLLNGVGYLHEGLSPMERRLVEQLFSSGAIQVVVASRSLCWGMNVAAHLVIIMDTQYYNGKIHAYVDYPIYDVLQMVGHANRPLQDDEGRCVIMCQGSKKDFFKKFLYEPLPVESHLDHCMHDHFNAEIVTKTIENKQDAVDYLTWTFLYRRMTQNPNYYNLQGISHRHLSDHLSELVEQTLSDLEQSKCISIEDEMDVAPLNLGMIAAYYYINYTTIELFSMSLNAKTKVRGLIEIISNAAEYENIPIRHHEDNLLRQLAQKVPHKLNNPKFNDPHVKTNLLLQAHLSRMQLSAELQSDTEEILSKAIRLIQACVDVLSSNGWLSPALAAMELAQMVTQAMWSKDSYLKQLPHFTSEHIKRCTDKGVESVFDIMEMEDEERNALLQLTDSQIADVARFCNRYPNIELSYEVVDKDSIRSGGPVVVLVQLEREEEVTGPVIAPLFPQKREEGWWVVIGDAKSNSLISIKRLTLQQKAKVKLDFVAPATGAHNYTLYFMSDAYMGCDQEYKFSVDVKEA

B1: His6-GST-C9ORF78 (natural protein, human)
chain: MPVVRKIFRRRRGDSESEEDEQDSEEVRLKLEETREVQNLRKRPNGVSAVALLVGEKVQEETTLVDDPFQMKTGGMVDMKKLKERGKDKISEEEDLHLGTSFSAETNRRDEDADMMKYIETELKKRKGIVEHEEQKVKPKNAEDCLYELPENIRVSSAKKTEEMLSNQMLSGIPEVDLGIDAKIKNIISTEDAKARLLAEQQNKKKDSETSFVPTNMAVNYVQHNRFYHEELNAPIRRNKEEPKARPLRVGDTEKPEPERSPPNRKRPANEKATDDYHYEKFKKMNRRY
notes: C9ORF78, human, 34 kDa; Tag cleavage led to degradation and was omitted for functional analyses in vitro; also called GST-C9ORF78^wt; source: E. coli BL21 RIL (pETM30), purified (Glutathione Sepharose, SEC); not shown: His6, N-terminal, kept; GST, N-terminal, kept
As to B1, the binding result in test [1], in test [2], in test [3] and in test [4] was “binds” in each case.

B2: C9ORF78 (His6/GST tag cleaved, co-purified with BRR2^HR) (natural protein, human)
chain: MPVVRKIFRRRRGDSESEEDEQDSEEVRLKLEETREVQNLRKRPNGVSAVALLVGEKVQEETTLVDDPFQMKTGGMVDMKKLKERGKDKISEEEDLHLGTSFSAETNRRDEDADMMKYIETELKKRKGIVEHEEQKVKPKNAEDCLYELPENIRVSSAKKTEEMLSNQMLSGIPEVDLGIDAKIKNIISTEDAKARLLAEQQNKKKDSETSFVPTNMAVNYVQHNRFYHEELNAPIRRNKEEPKARPLRVGDTEKPEPERSPPNRKRPANEKATDDYHYEKFKKMNRRY
notes: C9ORF78, human; the four N-terminal and 231 C-terminal residues not located in the map; 4 + 54 + 231 residues add up to 289, the length that I recall for the whole protein; not shown: His6, N-terminal, cleaved; GST, N-terminal, cleaved
Consider B2, for which the binding result in test [5] is “binds”.

B3: GST-C9ORF78^F8A (natural protein, human)
chain: MPVVRKIARRRRGDSESEEDEQDSEEVRLKLEETREVQNLRKRPNGVSAVALLVGEKVQEETTLVDDPFQMKTGGMVDMKKLKERGKDKISEEEDLHLGTSFSAETNRRDEDADMMKYIETELKKRKGIVEHEEQKVKPKNAEDCLYELPENIRVSSAKKTEEMLSNQMLSGIPEVDLGIDAKIKNIISTEDAKARLLAEQQNKKKDSETSFVPTNMAVNYVQHNRFYHEELNAPIRRNKEEPKARPLRVGDTEKPEPERSPPNRKRPANEKATDDYHYEKFKKMNRRY
notes: C9ORF78, human, with F8A; source: E. coli BL21 RIL (pETM30), purified (Glutathione Sepharose, SEC); not shown: His6, N-terminal, kept; GST, N-terminal, kept
Consider B3, for which, in test [1], the binding result is “binds”.

B4: FBP21^200-376 (domain or fragment, human, UniProt O75554 200-376, looked up)
chain: HTSDLPSSKVNENSLGTLDESKSSDSHSDSDGEQEAEEGGVSTETEKPKIKFKEKNKNSDGGSDPETQKEKSIQKQNSLGSNEEKSKTLKKSNPYGEWQEIKQEVESHEEVDLELPSTENEYVSTSEADGGGEPKVVFKEKTVTSLGVMADGVAPVFKKRRTENGKSRNLRQRGDDQ
On to B4, for which the binding result in test [5] is given as “binds”.

B5: PRPF8 Jab1 domain (PRPF8^Jab1; residues 2064-2335) (domain or fragment)
chain: not shown
notes: PRPF8, human, Jab1/MPN-like domain, residues 2064-2335; also called Jab1/MPN-like domain
For B5, the binding result in test [1] is “binds”.

B6: FBP21^116-376 (domain or fragment, human, UniProt O75554 116-376, looked up)
chain: KKKRKKDPSKGRWVEGITSEGYHYYYDLISGASQWEKPEGFQGDLKKTAVKTVWVEGLSEDGFTYYYNTETGESRWEKPDDFIPHTSDLPSSKVNENSLGTLDESKSSDSHSDSDGEQEAEEGGVSTETEKPKIKFKEKNKNSDGGSDPETQKEKSIQKQNSLGSNEEKSKTLKKSNPYGEWQEIKQEVESHEEVDLELPSTENEYVSTSEADGGGEPKVVFKEKTVTSLGVMADGVAPVFKKRRTENGKSRNLRQRGDDQ
Turning to B6, in test [4], the binding result is reported as “binds”.
